Source: patent publication US6432922 (CORVAS INTERNATIONAL, dated 2002)
Values joined by “and” are separate entries in the source; they are usually repeats but may differ in a detail not shown here. Equal entries are not always repeated. Non-standard residues stand in square brackets, D forms with d. Primed or numbered codes have the meaning given here. No end group written: not given here. *: point of attachment. cyclohexylmethylazacarbonyl = cyclohexylmethylazacarbonyl N-terminal cap, introduced with cyclohexylmethyl isocyanate, O=C(NCC1CCCCC1)*; benzylazacarbonyl = benzylazacarbonyl N-terminal cap (benzylaminocarbonyl), introduced with benzyl isocyanate, O=C(NCc1ccccc1)*; Argininal = arginine aldehyde, N=C(N)NCCC[C@@H](C=O)N*; argininal = arginine aldehyde, N=C(N)NCCC[C@@H](C=O)N*; aldehyde′ = argininal (arginine aldehyde) C-terminus; Propanoyl(3-cHex) = O=C(CCC1CCCCC1)*; Isobutyloxycarbonyl = CC(C)COC(=O)*; d(aThr) = C[C@@H](O)[C@@H](N)C(=O)O; cisHyp = O=C(O)[C@@H]1C[C@H](O)CN1; Isopropoxycarbonyl = CC(C)OC(=O)*; 3‑phenylpropyl = c1ccc(CCC*)cc1; d(hSer) = N[C@H](CCO)C(=O)O; Isovaleryl = CC(C)CC(=O)*; NMeA = CN[C@@H](C)C(=O)O; dAbu = CC[C@@H](N)C(=O)O; dDap = NC[C@@H](N)C(=O)O; Cbz = O=C(OCc1ccccc1)*; Sar = CNCC(=O)O

Tests used:
Assay in all cases: cell-based or functional assay
[1] = target: Urokinase (Abbokinase), manufactured by Abbott Laboratories (UniProt P00749 156-431)
[2] = target: Human rt-PA (Activase), obtained from Genentech Inc. (human, UniProt P00750 36-562)
Human rt-PA (Activase), obtained from Genentech Inc., sequence (P00750 36-562 limits assumed): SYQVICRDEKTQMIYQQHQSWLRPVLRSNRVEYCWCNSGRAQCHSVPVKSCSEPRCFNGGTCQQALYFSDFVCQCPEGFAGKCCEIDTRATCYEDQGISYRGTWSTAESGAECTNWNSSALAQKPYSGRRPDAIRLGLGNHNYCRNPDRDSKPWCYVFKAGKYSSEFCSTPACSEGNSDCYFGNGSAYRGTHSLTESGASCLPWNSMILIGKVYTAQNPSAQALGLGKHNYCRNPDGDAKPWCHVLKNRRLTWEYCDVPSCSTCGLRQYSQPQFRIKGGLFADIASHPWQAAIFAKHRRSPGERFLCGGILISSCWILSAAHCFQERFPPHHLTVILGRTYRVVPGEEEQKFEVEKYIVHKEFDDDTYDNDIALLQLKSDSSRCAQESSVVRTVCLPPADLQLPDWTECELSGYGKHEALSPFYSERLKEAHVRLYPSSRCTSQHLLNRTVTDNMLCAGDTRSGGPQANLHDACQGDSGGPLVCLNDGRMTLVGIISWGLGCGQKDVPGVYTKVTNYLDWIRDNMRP

[3] = target: Purified human plasmin, obtained from Enzyme Research Laboratories, Inc. (human, UniProt P00747 97-810, limits assumed)
Purified human plasmin, obtained from Enzyme Research Laboratories, Inc., sequence (P00747 97-810 limits assumed): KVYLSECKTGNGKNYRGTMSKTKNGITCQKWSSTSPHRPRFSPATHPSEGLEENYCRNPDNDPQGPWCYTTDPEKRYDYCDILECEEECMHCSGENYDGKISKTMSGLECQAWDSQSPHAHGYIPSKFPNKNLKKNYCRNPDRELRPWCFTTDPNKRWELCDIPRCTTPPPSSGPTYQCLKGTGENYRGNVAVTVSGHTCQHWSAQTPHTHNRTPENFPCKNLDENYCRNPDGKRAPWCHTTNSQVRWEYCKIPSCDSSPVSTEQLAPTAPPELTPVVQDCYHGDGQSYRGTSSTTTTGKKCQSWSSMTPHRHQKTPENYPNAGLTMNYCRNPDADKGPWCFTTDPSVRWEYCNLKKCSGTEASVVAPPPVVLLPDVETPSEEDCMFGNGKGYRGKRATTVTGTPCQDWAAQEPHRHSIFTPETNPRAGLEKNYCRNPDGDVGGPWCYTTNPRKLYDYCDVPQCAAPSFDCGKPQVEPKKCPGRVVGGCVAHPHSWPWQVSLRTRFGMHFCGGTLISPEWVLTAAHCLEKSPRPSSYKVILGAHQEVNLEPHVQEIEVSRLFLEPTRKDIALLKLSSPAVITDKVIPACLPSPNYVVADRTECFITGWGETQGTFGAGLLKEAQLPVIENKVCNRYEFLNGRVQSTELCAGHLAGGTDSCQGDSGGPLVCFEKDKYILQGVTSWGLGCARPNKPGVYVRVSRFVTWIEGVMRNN

Binder	IC50 [1]	IC50 [2] [nM]	IC50 [3]
Cbz-[dS]-Gly-Arg-{aldehyde′} [benzyloxycarbonyl-D-seryl-2-glycyl-argininal]	≥ 100 nM and ≤ 250 nM	> 2500	–
fluorenylmethyloxycarbonyl-[dS]-Ala-[argininal] [fluorenylmethyloxycarbonyl-D-seryl-alanyl-argininal]	< 100 nM	> 2500	–
Cbz-[dS]-[cisHyp]-Arg-{aldehyde′} [benzyloxycarbonyl-D-seryl-L-cis-4-hydroxyprolyl-argininal]	< 100 nM	> 2500	–
{Propanoyl(3-cHex)}-[dS]-Ala-Arg-{aldehyde′} [3-cyclohexylpropionyl-D-seryl-alanyl-argininal]	–	> 2500	> 2500 nM
{(+)menthyloxycarbonyl}-[dS]-Ala-[Argininal] [(+)menthyloxy-carbonyl-D-seryl-alanyl-argininal]	< 100 nM	> 2500	–
{2‑naphthyloxycarbonyl}-[dS]-Ala-Arg-{aldehyde′} [2-naphthyloxy-carbonyl-D-seryl-alanyl-argininal]	< 100 nM	> 2500	–
Isopropoxycarbonyl-[dS]-Ala-[argininal] [isopropyloxycarbonyl-D-seryl-alanyl-argininal]	< 100 nM	> 2500	> 2500 nM
Isovaleryl-[dS]-Ala-[argininal] [isovaleryl-D-seryl-alanyl-argininal]	–	> 2500	> 2500 nM
{3‑phenylpropyl}-[dS]-Ala-Arg-{aldehyde′} (also: trifluoroacetate salt) [N-α-(3-phenylpropyl)-D-seryl-alanyl-argininal, trifluoroacetate salt]	< 100 nM	> 2500	–
Cbz-[d(aThr)]-[Sar]-Arg-{aldehyde′} [benzyloxycarbonyl-D-allothreonyl-sarcosyl-argininal]	≥ 100 nM and ≤ 250 nM	–	–
Cbz-[dS]-Ser-Arg-{aldehyde′} [benzyloxycarbonyl-D-seryl-L-seryl-argininal]	≥ 100 nM and ≤ 250 nM	> 2500	–
Cbz-[d(aThr)]-[NMeA]-Arg-{aldehyde′} [benzyloxycarbonyl-D-allothreonyl-N-methylalanyl-argininal]	≥ 100 nM and ≤ 250 nM	–	–
phenoxycarbonyl-[dS]-Ala-[argininal] [phenoxycarbonyl-D-seryl-alanyl-argininal]	< 100 nM	> 2500	–
Cbz-Thr-Ala-[argininal] [benzyloxycarbonyl-threonyl-alanyl-argininal]	≥ 100 nM and ≤ 250 nM	> 2500	–
{2‑phenylethylsulfonyl}-[dS]-Ala-Arg-{aldehyde′} [2-phenylethylsulfonyl-D-seryl-alanyl-argininal]	< 100 nM	> 2500	–
Cbz-[dDap](2‑phenylethylcarbonyl)-Ala-[argininal] [N-α-benzyloxycarbonyl-N-β-2-phenylethylcarbonyl-D-2,3-diaminopropionyl-alanyl-argininal]	–	> 2500	–
Cbz-[dDap](methyloxycarbonyl)-Ala-[argininal] [N-α-benzyloxycarbonyl-N-β-methyloxycarbonyl-D-2,3-diaminopropionyl-alanyl-argininal]	–	> 2500	–
Cbz-[dT]-Ala-[argininal] [benzyloxycarbonyl-D-threonyl-alanyl-argininal]	–	> 2500	–
Cbz-[dS]-Cys(Me)-Arg-{aldehyde′} [benzyloxycarbonyl-D-seryl-S-methylcysteinyl-argininal]	≥ 100 nM and ≤ 250 nM	> 2500	–
benzylazacarbonyl-[dS]-Ala-Arg-{aldehyde′} [benzylazacarbonyl-D-seryl-alanyl-argininal]	≥ 100 nM and ≤ 250 nM	> 2500	> 2500 nM
Cbz-[dA]-Ala-Arg-{aldehyde′} [benzyloxycarbonyl-D-alanyl-alanyl-argininal]	≥ 100 nM and ≤ 250 nM	–	–

Binder	IC50 [1]	IC50 [2] [nM]	IC50 [3]
benzenesulfonyl-[dS]-Ala-Arg-{aldehyde′} (also: trifluoroacetate salt) [Benzenesufonyl-D-Ser-L-Ala-L-Arg-al, Trifluoroacetate Salt]	< 100 nM	> 2500	–
benzylsulfonyl-[dS]-Ala-Arg-{aldehyde′} (also: trifluoroacetate salt) [Benzylsulfonyl-D-Ser-Ala-Arg-al, Trifluoroacetate Salt]	< 100 nM	> 2500	–
methyloxycarbonyl-[dS]-Ala-[argininal] [methyloxycarbonyl-D-seryl-alanyl-argininal]	< 100 nM	> 2500	–
Cbz-[dT]-Pro-[argininal] [benzyloxycarbonyl-D-threonyl-prolyl-argininal]	≥ 100 nM and ≤ 250 nM	> 2500	–
{trans‑β‑styrenesulfonyl}-[dS]-Ala-[argininal] [trans-β-Styrenesulfonyl-D-seryl-L-alanyl-argininal]	< 100 nM	> 2500	–
{n‑butyloxycarbonyl}-[dS]-Ala-[argininal] [n-butyloxycarbonyl-D-seryl-alanyl-argininal]	< 100 nM	> 2500	–
Cbz-[d(hSer)]-Pro-[argininal] [benzyloxycarbonyl-D-homoseryl-prolyl-argininal]	≥ 100 nM and ≤ 250 nM	> 2500	< 100 nM
Cbz-[dS]-Ala-[argininal] [benzyloxycarbonyl-D-seryl-alanyl-argininal]	< 100 nM	–	–
Isobutyloxycarbonyl-[dS]-Ala-Arg-{CO‑phenethylamide} (also: trifluoroacetate salt) [i-butoxycarbonyl-D-Ser-Ala-Arg-CO-phenethylamide, trifluoroacetate salt]	≥ 100 nM and ≤ 250 nM	> 2500	–
Cbz-[dS]-Pro-[argininal] [benzyloxycarbonyl-D-seryl-prolyl-argininal]	< 100 nM	> 2500	–
cyclohexylmethylazacarbonyl-[dS]-Ala-[argininal] [cyclohexylmethylazacarbonyl-D-seryl-alanyl-argininal]	≥ 100 nM and ≤ 250 nM	> 2500	> 2500 nM
{2‑ethylhexyloxycarbonyl}-[dS]-Ala-Arg-{aldehyde′} [2-ethylhexyloxy-carbonyl-D-seryl-alanyl-argininal]	< 100 nM	> 2500	–
isobutyloxycarbonyl-[dS]-Ala-[Argininal] (not fully specified (C-terminus); printed as i-Butoxycarbonyl-D-Ser-L-Ala-Argininal; also: trifluoroacetate salt) [Isobutyloxycarbonyl-D-seryl-L-alanyl-argininal]	< 100 nM	> 2500	–
Cbz-[d(aThr)]-Ala-Arg-{aldehyde′} [benzyloxycarbonyl-D-allothreonyl-alanyl-argininal]	< 100 nM	> 2500	–
Cbz-[dS]-[Sar]-[argininal] [benzyloxycarbonyl-D-seryl-sarcosyl-argininal]	–	> 2500	–
{(−)menthyloxycarbonyl}-[dS]-Ala-[Argininal] [(-)menthyloxy-carbonyl-D-seryl-alanyl-argininal]	< 100 nM	> 2500	–
Cbz-Ser-Ala-[argininal] [benzyloxycarbonyl-seryl-alanyl-argininal]	–	> 2500	–
cyclohexylmethyloxycarbonyl-[dS]-Ala-[argininal] [cyclohexylmethyloxycarbonyl-D-seryl-alanyl-argininal]	< 100 nM	> 2500	–
Cbz-[dAbu]-Ala-[argininal] [benzyloxycarbonyl-D-2-aminobutyryl-L-alanyl-argininal]	–	> 2500	–
{3‑phenylpropylsulfonyl}-[dS]-Ala-Arg-{aldehyde′} [3-phenylpropylsulfonyl-D-seryl-alanyl-argininal]	< 100 nM	> 2500	–
Cbz-[dDap](Cbz)-Ala-[argininal] [N-α-N-β-dibenzyloxycarbonyl-D-2,3-diaminopropionyl-alanyl-argininal]	≥ 100 nM and ≤ 250 nM	> 2500	≥ 100 nM and ≤ 250 nM
